Measured values taken from patent publication US20200181261A1 (Bayer, published 2020).

T1: human CEACAM6, extracellular (mature form), R&D Systems 3934-CM (human, UniProt P40199 35-320)
T1 construct: used biotinylated in some assays; also called TPP-1436; Recombinant human CEACAM6
T1 sequence: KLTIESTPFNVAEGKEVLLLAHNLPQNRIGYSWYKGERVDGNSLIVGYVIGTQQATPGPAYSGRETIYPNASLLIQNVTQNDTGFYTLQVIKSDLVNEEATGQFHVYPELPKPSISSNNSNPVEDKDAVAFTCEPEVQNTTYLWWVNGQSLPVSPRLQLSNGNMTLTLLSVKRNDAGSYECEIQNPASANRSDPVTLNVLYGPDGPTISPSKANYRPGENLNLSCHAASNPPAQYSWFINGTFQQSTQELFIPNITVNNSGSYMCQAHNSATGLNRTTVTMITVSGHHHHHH

T2: human CEACAM1, extracellular (mature form), R&D Systems 2244-CM (human, UniProt P13688 35-428)
T2 construct: used biotinylated in some assays; also called TPP-1437; hC1
T2 sequence: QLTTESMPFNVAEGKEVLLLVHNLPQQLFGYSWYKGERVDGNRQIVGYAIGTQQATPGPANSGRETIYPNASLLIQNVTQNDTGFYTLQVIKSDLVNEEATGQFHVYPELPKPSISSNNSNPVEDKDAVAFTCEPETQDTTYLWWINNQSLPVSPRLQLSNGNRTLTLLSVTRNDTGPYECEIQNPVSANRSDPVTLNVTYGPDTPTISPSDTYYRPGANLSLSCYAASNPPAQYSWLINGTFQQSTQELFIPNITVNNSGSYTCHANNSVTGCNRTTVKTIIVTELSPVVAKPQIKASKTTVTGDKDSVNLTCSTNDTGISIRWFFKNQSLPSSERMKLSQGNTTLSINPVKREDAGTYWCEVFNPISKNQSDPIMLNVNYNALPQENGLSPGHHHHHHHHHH

T3: human CEACAM19, full-length, on transfected HeLa cells (human, UniProt Q7Z692 33-300)
T3 construct: also called TPP-4186; HeLa human CEACAM19
T3 sequence: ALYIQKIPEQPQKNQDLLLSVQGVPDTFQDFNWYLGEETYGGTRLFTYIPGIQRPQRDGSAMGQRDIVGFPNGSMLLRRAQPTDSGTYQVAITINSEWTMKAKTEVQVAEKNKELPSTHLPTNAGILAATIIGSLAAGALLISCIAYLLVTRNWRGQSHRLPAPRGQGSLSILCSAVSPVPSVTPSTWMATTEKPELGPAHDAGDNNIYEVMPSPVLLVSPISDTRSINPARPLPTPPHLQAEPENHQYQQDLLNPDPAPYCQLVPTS


Tests used:
[1] = target: T1, human CEACAM6, extracellular (mature …); assay: ELISA, antibody captured, biotinylated antigen titrated
Procedure: The binding characteristics of these antibodies were also determined by a binding ELISA (monovalent binding, biotinylated CEACAM proteins): A 1:440 dilution of an anti-human IgG (Sigma, 12136) in Coating buffer (Candor) was used to coat black 384-well Maxisorp plates (Nunc) for 1 hour at 37° C. After one wash with PBS/0.05% Tween-20 the plates were blocked with 100% SmartBlock (Candor) for 1 hour at 37° C. After three washes, 2 μg/ml of the relevant antibodies were added to the plate in PBS/0.05% Tween-20/10% SmartBlock. The plates were incubated for 1 hour at room temperature. After three washes dilution series of the relevant biotinylated CEACAM proteins in PBS/0.05% Tween-20/10% SmartBlock were added and the plates were incubated for one hour at room temperature. After three washes 1 μg/ml of Streptavidin-Peroxidase (Sigma, S5512) in PBS/0.05% Tween-20/10% SmartBlock was added and the plates were incubated for 30 minutes at room temperature. After three washes, the plates were developed with Amplex Red (Life Technologies) and fluorescence was read at an emission wavelength of 590 nm. GraphPad Prism 6.0 software was used to calculate EC₅₀ values using four-parameter non-linear curve fit.

[2] = target: T2, human CEACAM1, extracellular (mature …); assay: ELISA, antibody captured, biotinylated antigen titrated; binding ELISA, biotinylated CEACAM1 titrated up to 2000 ng/ml; ambiguous fit
[3] = target: T3, human CEACAM19, full-length, on …; assay: FACS, transfected HeLa cells
Outline: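 Antibody binding to transfected HeLa cells was measured by FACS on a Canto II or FACS Array instrument. For half maximal binding (EC₅₀), primary antibodies were titrated from 0.1 nM to 100 nM. Median fluorescence intensity was plotted against log concentration, and curves were fitted in Graph Pad prism. Cells had been released with EDTA dissociation buffer and stained at 4° C.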

EC50 [1] [nM] | fold better binding than to human CEACAM3 (ratio of EC50 values) [1] [fold] | EC50 [2] [µg/mL] | binding result [3] | Binder
0.18 | ~620 | > 2 |  | TPP-3705 (antibody, human IgG2, kappa, V domains shown, also called 090E-M007-A09-Mat1-hIgG2-hIgG2Kappa) VH: EVQLVESGGGLVQPGGSLRLSCAASGFTFSLYQMHWVRQAPGKGLEWVSWISFSGGNTGYADSVKGRFTISRDNSKNTLYLQMNSLRAEDTAVYYCARATGYSSPWYLDPWGQGTLVTVSS VL: DIQMTQSPSSLSASVGDRVTITCQASHEIDNYLNWYQQKPGKAPKLLIYDAYWLKTGVPSRFSGSGSGTDFTLTISSLQPEDIATYYCQGYDDLSVTFGGGTKVDIKR
0.19 | ~730 | > 2 | no binding (tested: 5 µg/ml) | TPP-3707 (antibody, human IgG2, kappa, V domains shown, also called 090E-M007-A09-Mat2-hIgG2-hIgG2Kappa) VH: EVQLVESGGGLVQPGGSLRLSCAASGFTFSLYQMHWVRQAPGKGLEWVSWISFSGGNTGYADSVKGRFTISRDNSKNTLYLQMNSLRAEDTAVYYCARATGYSSPWYLDPWGQGTLVTVSS VL: DIQMTQSPSSLSASVGDRVTITCQASHEIDNYLNWYQQKPGKAPKLLIYDAYWSKTGVPSRFSGSGSGTDFTLTISSLQPEDIATYYCQGYDDLSVTFGGGTKVDIKR
0.09 |  |  | no binding (tested: 5 µg/ml) | TPP-3714 (antibody, human IgG2, kappa, humanized from TPP-2971, human IgG2; also called TPP-2971HU2-hIgG2Kappa) heavy: QVTLRESGPALVKPTQTLTLTCTFSGFSLSTYGIGVGWIRQPPGKALEWLAHIWWNDNKYYSTSLKTRLTISKDTSKNQVVLTMTNMDPVDTATYYCARISLPYFDYWGQGTLVTVSSASTKGPSVFPLAPCSRSTSESTAALGCLVKDYFPEPVTVSWNSGALTSGVHTFPAVLQSSGLYSLSSVVTVPSSNFGTQTYTCNVDHKPSNTKVDKTVERKCCVECPPCPAPPVAGPSVFLFPPKPKDTLMISRTPEVTCVVVDVSHEDPEVQFNWYVDGVEVHNAKTKPREEQFNSTFRVVSVLTVVHQDWLNGKEYKCKVSNKGLPAPIEKTISKTKGQPREPQVYTLPPSREEMTKNQVSLTCLVKGFYPSDIAVEWESNGQPENNYKTTPPMLDSDGSFFLYSKLTVDKSRWQQGNVFSCSVMHEALHNHYTQKSLSLSPG light: DIQLTQSPSFLSASVGDRVTITCKASQNVGTAVAWYQQKPGKAPKLLIYSASNRYTGVPSRFSGSGSGTEFTLTISSLQPEDFATYYCQQYSSYPLTFGGGTKVEIKRTVAAPSVFIFPPSDEQLKSGTASVVCLLNNFYPREAKVQWKVDNALQSGNSQESVTEQDSKDSTYSLSSTLTLSKADYEKHKVYACEVTHQGLSSPVTKSFNRGEC
 |  |  | no binding (tested: 5 µg/ml) | TPP-3821 (antibody, human IgG2, kappa, V domains shown, humanized from TPP-3187, human IgG2; also called 3187HU2-hIgG2Kappa) VH: QVTLRESGPALVKPTQTLTLTCTFSGFSLSTYGIGVGWIRQPPGKALEWLAHIWWNDNKYYSTSLKTRLTISKDTSKNQVVLTMTNMDPVDTATYYCARISLPYFDYWGQGTLVTVSS VL: DIQLTQSPSFLSASVGDRVTITCKASQNVGTAVAWYQQKPGKAPKLLIYSASNRYTGVPSRFSGSGSGTEFTLTISSLQPEDFATYYCQQYNNYPLTFGGGTKVEIKR
0.09 |  |  | no binding (tested: 5 µg/ml) | TPP-3310 (antibody, human IgG2, kappa, humanized from TPP-2971, human IgG2; also called TPP-2971HU1-hIgG2Kappa) heavy: QVTLRESGPALVKPTQTLTLTCTFSGFSLSTYGIGVGWIRQPPGKALEWLAHIWWNDNKYYSTSLKTRLTISKDTSKNQVVLTMTNMDPVDTATYYCARISLPYFDYWGQGTTLTVSSASTKGPSVFPLAPCSRSTSESTAALGCLVKDYFPEPVTVSWNSGALTSGVHTFPAVLQSSGLYSLSSVVTVPSSNFGTQTYTCNVDHKPSNTKVDKTVERKCCVECPPCPAPPVAGPSVFLFPPKPKDTLMISRTPEVTCVVVDVSHEDPEVQFNWYVDGVEVHNAKTKPREEQFNSTFRVVSVLTVVHQDWLNGKEYKCKVSNKGLPAPIEKTISKTKGQPREPQVYTLPPSREEMTKNQVSLTCLVKGFYPSDIAVEWESNGQPENNYKTTPPMLDSDGSFFLYSKLTVDKSRWQQGNVFSCSVMHEALHNHYTQKSLSLSPG light: DIQLTQSPSFLSASVGDRVTITCKASQNVGTAVAWYQQKPGKAPKLLIYSASNRYTGVPSRFSGSGSGTEFTLTISSLQPEDFATYYCQQYSSYPLTFGGGTKVEIKRTVAAPSVFIFPPSDEQLKSGTASVVCLLNNFYPREAKVQWKVDNALQSGNSQESVTEQDSKDSTYSLSSTLTLSKADYEKHKVYACEVTHQGLSSPVTKSFNRGEC
 |  |  | no binding (tested: 5 µg/ml) | TPP-3820 (antibody, human IgG2, kappa, V domains shown, humanized from TPP-3187, human IgG2; also called 3187HU1-hIgG2Kappa) VH: QVTLRESGPALVKPTQTLTLTCTFSGFSLTTYGIGVGWIRQPPGKGLEWLAHIWWNDNKYYSTSLKTRLTISKDTSKNQVVLTMTNMDPVDTATYYCARISLPYFDYWGQGTLVTVSS VL: DIQLTQSPSFLSASVGDRVTITCKASQNVGTAVAWYQQKPGKAPKLLIYSASNRYTGVPSRFSGSGSGTEFTLTISSLQPEDFATYYCQQYNNYPLTFGGGTKVEIKR
